This passage reports median enrichment results from the supplement of paper PMC11502859.
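Also: lentiviral eGFP-IRES-mCherry reporter pool sorted by FACS 96 h post-transduction, gated on mCherry-high cells, Illumina read counts normalized per million, median across four biological replicates.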

The test system of the data set is HEK293T. In words: median enrichment of reporter reads in eGFP-reduced (low/intermediate) vs eGFP-high sorted cells (eGFP-extension fusion abundance) (ratio); higher = stronger loss of eGFP-fusion protein abundance (more destabilising extension).
Consider RSNFSFTVLSCLHRKSQYNFHC [SEC23IP], for which the median enrichment is 2.62. Consider RSAAIRWKPLEPEAAA [FXYD6], for which the median enrichment amounted to 12. The figure for RELTCETSA [FOXP2] is 0.325. The figure for “SQPSPPSPGAAWGGKSCSLRRAQLAGAVPGHGRFPVTHSLRKPGVIGHLAGQRSWGWF [CLCN6]” is 3.27. The figure for LPSESGGKTPPSLCILNH [UGT3A1] is 0.835. Turning to “RRTACSDQRAQRPEDKSGGDSMGMGVGCLRERTHGLGRGERCMGITFARAAYLKVTVSSGTAGDRYLLLQEINYPENSTQPVT [LEXM]”, the median enrichment was found to be 13.9. The figure for “WPGGGKHREREWPSGNPAGYPNPKGSYSQRHILVFVIILYQK [VPS26C]” is 16.9; for SWPPASASSYLLPGSPPRRPPYRERGFTR [OGG1] it is 6.11; for “RDSRTKSLCMKLPTMNVMMLYTKVTRQLSLSGFRSVFGTSLSSTYSAHGNYKLYISFPIVFQNVFSTEHA [RUFY2]” it is 8.53. Then WGEKPQKGKLQTSWETCAKDFAD [CXCL14], with 0.277; and AAA [Ala03], with 0.262. The figure for SLEWTTAKLAPSSDRKPPCVGDCRHAK [TM9SF4] is 1.73. Take KSTSSHETE [UNC5D]: the median enrichment stood at 1.07. As for YYYLQMKLTYTDLSSLMKKIRCYPIK [RBM11], the median enrichment was found to be 13. The figure for YPILKVALFLLDLAELVAWGVGEIKRT [SPCS2] is 11.7. The figure for DDD [Asp03] is 0.645; for “LKSKLVVLQLCVTFSPSAVSVQHLFHKCFVFSNTVFTTLLACICMFYTKAYTVLCEAIRSRKGIVNNIKHFYTKIICFVIRF [SLC44A5]” it is 2.32.

In the case of SVAHSGKGVLCEHVEA [GATC], the median enrichment is 0.756.

Take “SALGWSQGGTTQAPWAPRERGGIRAGQPPGCRCQEQSQAQVAPAACPVPFPKAPLHIEGRKREFRQLHSPFTPNPVFYSPEKR [STARD8]”: the median enrichment was 3.27. Then YFLSVILP [GLB1L3], with 8.25; and WECRSAGRREE [CNPY1], with 7.46. Take “WARTSPGTAGGPPPPPSHSVTPGPSGAGWRPRSPLLRSPRS [NPB]”: the median enrichment was 3.31. The figure for CCCCCCC [Cys07] is 9.39. In the case of “LPGPGFAPAPASGPPGSRCGGCGPRAGARRRRRRREGARPAGRNRSDSRQEPGTEPGTEQQVRPGPPRLGADSDALGGSRKGG [NKX6-2]”, the median enrichment was determined as 6.82. Then QHGGFGS [AKAIN1], with 0.844; and “SWTGLFLTSDLSQCLFCPGSDFPVVLPPFRIKGLIVYPEFTSFGVYI [COBL]”, with 13.

As for WPVRPLSSPS [TBL3], the median enrichment amounted to 0.256. The figure for LPLARSLPSVHRSQFHRWRRCLR [PIPOX] is 10.5; for GGG [Gly03] it is 1.62.

As to LRCQLPSEQAGGICHTAPPLG [SMPD4], the median enrichment was 2.92. On to LPRWFQPRHTLVPT [DNAAF5], for which the median enrichment came out at 4.04.

Regarding KRTQPPSAQREATSQPRGGRIRKQSHS [CCK], the median enrichment was 0. Then SMSSDWRIRKIYGPTFDAIF [ZCCHC4], with 8.58; and “RSQLCSGQACSLRTLTTLDLELGTCGHSSSPGCIP [CIITA]”, with 42.6; and YINEENKRS [CLEC7A], with 0.716. Then “QTVEWLKLLSRRIYTSDLRRETLTPQWLHLL [HIST1H2BJ]”, with 10.5; and “LDFMHSSERVTVTTVLSPISHKLLFVSKRMLLLLHCFPFAGTCWCLLLNWPALLAVWHCSLGRLLCSLYLHYRLVNLPTSSL [DCUN1D4]”, with 4.52.

For LGSWRHWRGQEG [Degron KLHDC3], the median enrichment turned out to be 8.96. Then YIMDWDILYFSC [UBA5], with 13; and “WSLKWRTCVFIISAKVLTSCAFPITSRSNYQLVWIFGPPFSHFGLPCSQNILNESIGIQKDSRQNERK [VCAN]”, with 11.9; and HHHHHHHHH [His09], with 0.435. Then SPARRPSQRVTRPRGRTDSSDSPQ [EPS8L1], with 0.338; and SGQGQPRD [SLC5A5], with 0.35; and QDTERRTYSRNGLVQSQSPPL [CFAP157], with 0.332. Then “WSFSHSSPSQRCDGRWTLSGEDALLLGRCSGSFSGARTEAPCDFRPGSMWACNFLHSQLGPIPGFKMVAIPEESP [SUSD1]”, with 3.48. For “RGGRTSNLPKRLPCPNPFITPSFRHPQPLLAQKENWGLRVGTQA [TNF]”, the median enrichment amounted to 7.66. The figure for QAR [MMP10] is 0.457; for “WEMVGIRLRAASTQSQSKASLLMCEFTNSDGSSHILQMLSLPAG [ITSN2]” it is 19.2. Then YGPVGPAAVLHPTPLTPASCCK [WDR13], with 6.81; and QCVSRCQ [SPG21], with 0.894; and YTSVLNQDLTQKD [GTF2IRD1], with 0.784.

As for WWW [Trp03], the median enrichment was found to be 2.55. The figure for QWPSDDS [COL15A1] is 0.307. As for MALAVRVVYCGA [Degron KLHDC2], the median enrichment turned out to be 5.57. For the substance “QYLTGHHRILWIFFPSFWFWFRANSCFIGTVYEAFETKNNEE [GALC]”, the median enrichment was 6.16. The figure for “WGAPQEGPVDLRRLHKKLMDHWSVPMGSIISSTLKMSKVCSFQTASPGSLGNAGKSKRISLALIT [ACSM5]” is 17.8; for GSYISPSIRGHTQESNFALLQALVEAA [ZNF337] it is 9.72. As to LEIWRIF [RNF148], the median enrichment was determined as 9.09. Then CITKCLYCLK [EFCAB1], with 7.35; and REDAFLFMGFLPWSLSSKCHSGQSFVSVS [NOD1], with 33.9; and “LHGFQASGSLTISLLRVSPGNCLTKSQAQGLLSIYLISERLF [LIMCH1]”, with 33.9.

On to YEDPPEE [IGF1], for which the median enrichment is 2.17. As to YAAIDSRSLYTVTSEDYT [SLC46A3], the median enrichment came to 6.41. The figure for “QICIIQAYLVKQTHIMGLGNIYLSKFAITDLGFFPFFEGKFNYIALLFFPLRDSLLGKCFLRTKI [CHMP5]” is 4.31; for YPV [HNRNPUL1] it is 0.542; for WGWGWTNNQARAEGFMERPLGDPR [S1PR2] it is 3.36.

Turning to “WNLLSMILPATPLPSLAQSRGAMLSAHPSCTLAPCSRDVSTHSLC [MYPOP]”, the median enrichment was found to be 7.81. The figure for YISLFVSMRCPTGPI [CADM1] is 15.7; for LLLPRSWATP [CEP72] it is 4.2; for “WERPGGGAHWEGQDSVPALILPCPDVSCFAQRSFLSTPLIPRLVPREGWRPGHGPSRRGREGRRGRGRIEPIPAGEGEPSVHL [ASIC4]” it is 1.34.

For SYLQCPCCVALQMRPLQTRPA [WDCP], the median enrichment was found to be 8.46.

As to “WGMFVPGKAGGEPLQHLYIQEACREELVCWPQEEWELQTRSSDSLWPESNLVSPPASLF [FGF1]”, the median enrichment was determined as 7.24.

Regarding “WASSPPAHVMKQRFGLVAHCLWPPSPAQPQASQPQTLESPTTMERWAVAMVDGLPGWAFELALGTTRLSLSSHGTQKCAAMLP [ADGRG1]”, the median enrichment is 5.77.
